± gives the uncertainty stated by the source.
Test: amyloid nucleation score (Sup35N fusion, yeast selection) (log enrichment); library NNK1; higher = more nucleation; inactive = no reads after selection
Summary of the method: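 The nucleation score is a DiMSum log enrichment of output over input reads, centred on the mode score of non-aggregating sequences. Sequences under 100 input reads were excluded, and reads came from Illumina sequencing of plasmid inserts. Psi-negative yeast expressing Sup35N fused to peptides of 20 random codons were induced with 100 μM copper sulfate for 24 hours and grown 7 days at 30°C on medium lacking adenine and uracil. Random libraries had three technical output replicates.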

Substance | amyloid nucleation score
STVFNGSGGEDVKKCPPHA | inactive
RRRYSC | -0.307 ± 0.42
SDYILCIPWPSGLS | 0.734 ± 0.97
VCIECTVAVKFHGYMRHSCC | 1.09 ± 0.54
SMGRLP | -1.05 ± 1.5
APQFTKGFSEFGDLGAMRRA | 0.196 ± 0.67
HCPCGCYTPFLAKRMSSVLV | 0.362 ± 0.26
FTCFATCCVLMNNVYYFMTL | 5.085 ± 0.05
VVEIWR | 0.655 ± 0.6
VITNHDDE | 0.51 ± 0.47
AWGRDYEELSSPLGMKALTW | 0.381 ± 0.31
ISWYGFAT | inactive
LIVNRSKFLT | 0.625 ± 0.36
QQGPFVCWIQR | -0.583 ± 1.1
LWFNSDLIE | -0.369 ± 0.35
TGLLSR | 1.33 ± 0.9
IKLFLRNIV | -0.252 ± 0.59
LRCLANVDSIICNSV | -0.071 ± 0.9
QSFSSSMHHDHDNWDQCCES | 0.522 ± 0.59
YHVDC | -0.13 ± 0.34
GNVSDYVVMIGVMVSLPCLI | -0.222 ± 0.56
SICFYSLNSTPSLVGSWWGG | 1.3 ± 0.85

Substance | amyloid nucleation score
SISVNTFLRPQLRWM | 6.509 ± 0.061
ISINQIMFAKGPYFERLAEN | 4.07 ± 0.096
TLRCDFLPRNKF | -0.595 ± 1.4
VPYQCDKTKHFVRKVLILGA | 1.81 ± 0.58
VLRTGVH | 1.25 ± 0.66
PCSQPFT | -0.154 ± 0.45
LTVLACPRYSS | 0.525 ± 0.87
QYTYFMSGDWSNGRVSLVKK | 2.96 ± 0.099
KIVCLKFYVIDMRSMLTVVS | 2.54 ± 0.088
FLRVILRVYLAVLRGNRQCN | -0.716 ± 0.36
MIRPVFLVFVYMLFCLGNCT | 0.383 ± 0.28
ATVSDF | -0.478 ± 0.36
VMMRTSSARMGLLLDVTCGN | 0.058 ± 0.61
LLQMWMEWRVFYYHLFVSAS | 0.085 ± 0.55
CQNFDDI | 0.117 ± 0.9
GLYSTGNFDVGRSLCDHMGS | -0.492 ± 1.1
THVIRVGNQRSLRVFSRGVS | 1.32 ± 0.41
GSLLLMGRTMDVYQNRHFFH | 0.651 ± 0.28
ALRAHHSL | 0.498 ± 0.56
VGSTLYHLRKDMSTLSPGMY | 0.012 ± 0.34
ENIALIYLECVFKVGSRCFE | 0.198 ± 0.24
VAIRTKPLYLDEYIFMDHMP | 0.459 ± 0.68

Substance | amyloid nucleation score
TTALFWSRRPSFGDLYRGFN | 3.86 ± 0.082
LRDRCTFG | -0.755 ± 0.5
AFYSEMGFSDVYILLVYSMM | 4.45 ± 0.073
YMVSCYLAGNQDSVVCSVKW | 2.23 ± 0.18
SRRCLLKNISSPCF | -1.82 ± 0.87
ATLHGFLLKICLADVLAYLV | 0.476 ± 0.42
EIMKCFNFTHMVEMKSMKRN | 2.62 ± 0.087
GWWGHGFALRSFVLIAHLDV | 0.06 ± 0.72
TVRGSAFLIKWKLI | -0.86 ± 0.9
TFGTKRRLGL | 1.47 ± 0.5
AHIISIKYLGSIFNKRRRFA | 0.874 ± 0.66
YAFWFLCGYALP | 2.92 ± 0.12
SGSRGMFSKCVDK | 1.86 ± 0.1
QAYLKVQVWLDRRNSI | inactive
YFVHQNKHRTKIIILGLGLI | 1.35 ± 0.5
TSAVQIVTLQLVLSWMRYHM | 1.02 ± 0.28
NWTVFLATNGF | -0.095 ± 0.85
YFEFSIHSQRYIQWSHYLVL | -1.05 ± 1.7
MNYVSMHDYYRVVH | 0.128 ± 0.61
MTMKLFRQD | -0.049 ± 1.1
SIASIIRRFNWDTK | 3.87 ± 0.095
FMPYWNTLNFMSYGVRLIHK | 0.231 ± 0.65

Substance | amyloid nucleation score
LEGSNSFNLRNLQFALRGTL | 0.069 ± 0.45
LFAPPYLLAVMEE | 0.97 ± 0.72
LLVCSKRSGLVSLLLVIYAF | -0.522 ± 1.4
RFLVFC | inactive
NDDRFSLLCGRGRSGLSEWC | inactive
CANFVFCCMGE | 7.396 ± 0.072
GGQFHEEFSNEINEVQDCVL | -0.15 ± 0.75
RMMSGRWFMMWWLLVANRGV | inactive
FYFRHSVLMCKHLFQFDYKE | 0.668 ± 0.45
SSGRRWWTFQHHQIYLKVRS | 1.09 ± 0.59
DYAGWPYLPSMHQATLQDAR | 0.275 ± 1.2
FNLGTNK | -0.442 ± 0.3
VGWLRFIRWYDPRLENWRTG | 0.235 ± 0.78
LIDRHSFVRGRIRVSSVVVC | inactive
FVFLISAL | -0.617 ± 0.5
SCLKSDVYVCCEDLRRLDCV | -0.453 ± 0.38
PDDSKFSNV | 0.902 ± 0.88
IRSVGRSLRFMYS | 0.204 ± 0.46
GKERCDRMNKTLFLTFSYII | -0.281 ± 0.71
ICVLKKFLVSIQSVIY | 1.46 ± 0.74
AALTCLCCWAFFVISKNNYQ | 0.995 ± 0.58

From the supplement of paper PMC12042874
